Measured values: patent US7230085B2, “Anti-DOTA antibody” (Immunomedics, Inc., priority 2001, dated 2007)
Several values for one entry are separate records, joined by “and”; a condition that tells them apart may be missing. Equal entries are not always repeated. Entries after “also recorded” stand apart in the source; their conditions may differ.

How the values were obtained:
[1] = tested on: metal complexes of DOTA-hLL2; test: ELISA binding of LG1 to DOTA-hLL2 metal complexes
Experimental: Immunocompetent mice were immunized mice with the macrocyclic chelate DOTA, previously coupled to a humanized immunoglobulin (hIgG). A number of mice were injected and the harvested splenocytes fused with the mouse myeloma cell line SP2/0, according to a standard technique. A total of 1800 clones were screened by ELISA for reactivity with DOTA-conjugated hIgG and hIgG alone. Initially, 25 clones were identified as secreting an IgG that bound to the IgG-DOTA conjugate, but not to the IgG. After being sub-cloned three times, only one hybrid, termed LG1, remained positive and this was adapted to grow in serum-free media. […] LG1 was purified from culture supernatant with a yield of ^˜50 mg/liter of media. […] These metals include gadolinium, gallium, indium, lead, lutetium and yttrium. Additionally, LG1 has a high affinity for a variety of DOTA compounds, showing strong reactivity starting at concentrations of ^˜1 ng/mL (^˜10^−9M), compared to previously produced anti-DOTA antibodies that had affinities measured in microgram amounts.
(§1) LG1 is tested by ELISA for binding to hLL2 and a panel of different metal complexes of DOTA-hLL2. The capture proteins are diluted to 10 μg/ml, and dilutions of LG1 are assayed. Binding is shown using a peroxidase-conjugated goat anti-mouse IgG Fc specific antibody.

hLL2 [2] = test: ELISA binding of LG1 to hLL2
Experimental: as §1

BSA-DOTA-Yttrium = test: Inhibition of LG1 binding to BSA-DOTA-Yttrium by hLL2-DOTA metal complexes (ELISA); conditions: LG1 0.1 μg/ml; inhibitors 10 to 0.0001 μg/ml
Experimental: The binding of LG1 to BSA-DOTA-Yttrium is also tested in the presence of a panel of hLL2-DOTA metal complexes by incubating LG1 at concentration 0.1 μg/ml with hLL2 and the DOTA-hLL2 conjugates, at concentration 10 to 0.0001 μg/ml, and then adding to ELISA plates coated with BSA-DOTA-Yttrium.

hLL2-DOTA-yttrium = test: Qualitative binding on size-exclusion HPLC; conditions: SE-HPLC
Description: (§2) The msAb, LG1×hMN-14 (Fab′×Fab) is shown by the same analysis to bind to hLL2-DOTA-yttrium.

hLL2-DOTA = test: Qualitative binding on size-exclusion HPLC; conditions: SE-HPLC
Description: as §2

hLL2 [3] = test: Qualitative binding on size-exclusion HPLC; conditions: SE-HPLC
Description: as §2

hMN-14-DOTA-yttrium-90 = test: Qualitative binding on size-exclusion HPLC; conditions: SE-HPLC
[4] = tested on: biotin-D-Phe-D-Lys(DOTA-indium-111); test: Qualitative binding on size-exclusion HPLC; conditions: epsilon-linked indium-DOTA
Description: (§3) To determine the essential features that are important to elicit LG1 binding, labeled DOTA (indium-111) was linked to a hapten, via lysine residues, on either the alpha (DOTA-Lys(HSG)-D-Tyr-Lys(HSG)-NH2) or epsilon (biotin-D-Phe-D-Lys[DOTA]) positions of one of the DOTA carboxy groups. LG1 did bind the epsilon-linked indium-DOTA, but not the alpha-linked indium DOTA. […] Thus, the antibody of the current invention is “universal” in that it may bind to any DOTA-metal complex with a pendant N-alkylacetamide group, regardless of the type of metal with which DOTA is complexed. As used herein, the phrases “universal anti-DOTA antibody” or “universally binds” are used to mean an antibody that binds to any DOTA or DOTA-metal complex with a pendant N-alkylacetamide group.
as §2

[5] = tested on: indium-111-DOTA-Phe-Lys(HSG)-D-Tyr-Lys(HSG)-NH2; test: Qualitative binding on size-exclusion HPLC
Description: as §3, §2

indium-DOTA alone = test: LG1 binding to indium-DOTA alone
Description: as §3

[6] = Isoelectric focusing of purified LG1; type: physicochemical
Experimental: LG1 cells are expanded and adapted to grow in H-SFM media in serum-free conditions. The antibody LG1 is isolated from the culture media by affinity chromatography on Protein G Sepharose with a yield of ^˜50 mg of IgG per liter of culture media. The purified antibody is analyzed by SDS polyacrylamide electrophoresis, isoelectric focusing, and its isotype is determined by ELISA with a commercially available kit (Southern Biotechnology, Birmingham, Ala.).

B1: LG1: murine monoclonal anti-DOTA antibody, IgG2b with a lambda light chain (antibody, V domains shown)
VH: EVMLVESGGGLVKPGGSLTLSCAASGFTFTAHAMSWVRQTPEKRLEWVATISGGGTYTYFPDSFQGRFTISSDNAKNTLYLQMSSLRSEDTSMYFCTRHGDYRYAFGYWGQGTLVTVSA
VL: VVTQESALTTSPGETVTLTCRSSSGAVTTNNYANWVQEKPDHLFTGLIGGTNNRAPGVPARFSGSLIGDKAALTITGAQTEDEAIYFCALWFSDHWVFGGGTELTVLG
binding to DOTA-hLL2 and its metal complexes ([1]; ELISA, gadolinium, gallium, indium, lead, lutetium, yttrium and no metal): Equivalent binding; also recorded: Identical binding; also recorded: bind equally; also recorded: bind equivalently well; also recorded: binds to gadolinium-DOTA complexes as well as it binds to the yttrium-DOTA complexes | concentration at which strong reactivity starts ([1]; ELISA, variety of DOTA compounds): ~1 ng/mL and ~10^−9 M | Kd ([1]; estimated by ELISA method to determine ligand binding affinity, read-out: affinity towards many different metal-DOTA complexes): 0.001 to 0.1 nM | binding to hLL2 (hLL2 [2]): no binding | specificity in inhibition assay (BSA-DOTA-Yttrium): anti-DOTA specific, independent of the metal being bound in the chelate ring | binding to hLL2-DOTA-yttrium (hLL2-DOTA-yttrium): positive binding | binding to hLL2-DOTA (hLL2-DOTA): positive binding | binding to hLL2 itself (hLL2 [3]): no binding | binding to hMN-14-DOTA-yttrium-90 (hMN-14-DOTA-yttrium-90): positive binding | binding to biotin-D-Phe-D-Lys(DOTA-indium-111) [4]: positive binding; also recorded: did bind | binding to alpha-amino-linked indium-111-DOTA peptide [5]: no binding and not | binding to indium-DOTA alone (indium-DOTA alone): did not bind | PI [6]: 5.85-6.85
